These results are taken from the supplement of paper PMC6379048.

One series concerns the target T1, MKRN2 (UniProt Q9H000).
T1 sequence: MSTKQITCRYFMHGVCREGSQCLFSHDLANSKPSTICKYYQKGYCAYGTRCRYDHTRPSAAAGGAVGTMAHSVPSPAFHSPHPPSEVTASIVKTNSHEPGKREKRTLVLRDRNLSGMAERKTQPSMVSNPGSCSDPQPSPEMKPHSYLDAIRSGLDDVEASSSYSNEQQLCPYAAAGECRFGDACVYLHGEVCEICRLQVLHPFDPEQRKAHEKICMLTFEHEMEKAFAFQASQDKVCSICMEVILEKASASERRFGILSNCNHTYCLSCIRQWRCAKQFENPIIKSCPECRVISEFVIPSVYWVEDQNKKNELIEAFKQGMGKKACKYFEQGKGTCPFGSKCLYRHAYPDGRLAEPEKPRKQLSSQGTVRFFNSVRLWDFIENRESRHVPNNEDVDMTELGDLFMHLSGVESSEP
The series can be described thus: EC50 of free RNA motif oligo competing protein binding to immobilised probe. An outline of the steps: (§1)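 HEK293-FT lysate (2.5 mg protein/well) was treated with free RNA oligos (0 nM to 30 μM) for 1 h at 4°C, then with the same oligos on NHS-Sepharose beads for 30 min at 4°C. Bound proteins were quantified by label-free LC-MS/MS relative to the control. EC50 came from a four-parameter log-logistic fit, and Kd is EC50 times a protein-dependent depletion factor.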

The target of a further series is T2, FUBP1 (UniProt Q96AE4).
T2 sequence: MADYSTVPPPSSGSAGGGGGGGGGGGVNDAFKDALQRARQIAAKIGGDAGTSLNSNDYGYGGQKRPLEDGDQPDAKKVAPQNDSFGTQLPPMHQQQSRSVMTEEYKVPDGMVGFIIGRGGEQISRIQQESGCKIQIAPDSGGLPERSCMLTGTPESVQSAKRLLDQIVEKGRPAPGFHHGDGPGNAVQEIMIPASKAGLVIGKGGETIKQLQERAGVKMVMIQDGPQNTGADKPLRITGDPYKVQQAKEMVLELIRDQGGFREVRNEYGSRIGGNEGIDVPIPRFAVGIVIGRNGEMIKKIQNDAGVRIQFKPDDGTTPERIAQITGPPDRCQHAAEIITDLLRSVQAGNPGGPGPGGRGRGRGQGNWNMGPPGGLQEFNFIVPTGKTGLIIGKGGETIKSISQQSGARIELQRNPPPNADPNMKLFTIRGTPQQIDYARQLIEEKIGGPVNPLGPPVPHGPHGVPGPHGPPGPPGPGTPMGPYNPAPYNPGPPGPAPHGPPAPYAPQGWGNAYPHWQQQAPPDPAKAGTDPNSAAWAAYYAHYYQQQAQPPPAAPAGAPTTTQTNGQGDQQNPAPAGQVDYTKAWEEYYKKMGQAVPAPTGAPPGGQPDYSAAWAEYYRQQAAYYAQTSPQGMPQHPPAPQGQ
The experiment in a line: Kd (EC50 corrected by depletion factor). The method in brief:
as §1

The next series has as its target T3, SF3B2 (UniProt Q13435).
T3 sequence: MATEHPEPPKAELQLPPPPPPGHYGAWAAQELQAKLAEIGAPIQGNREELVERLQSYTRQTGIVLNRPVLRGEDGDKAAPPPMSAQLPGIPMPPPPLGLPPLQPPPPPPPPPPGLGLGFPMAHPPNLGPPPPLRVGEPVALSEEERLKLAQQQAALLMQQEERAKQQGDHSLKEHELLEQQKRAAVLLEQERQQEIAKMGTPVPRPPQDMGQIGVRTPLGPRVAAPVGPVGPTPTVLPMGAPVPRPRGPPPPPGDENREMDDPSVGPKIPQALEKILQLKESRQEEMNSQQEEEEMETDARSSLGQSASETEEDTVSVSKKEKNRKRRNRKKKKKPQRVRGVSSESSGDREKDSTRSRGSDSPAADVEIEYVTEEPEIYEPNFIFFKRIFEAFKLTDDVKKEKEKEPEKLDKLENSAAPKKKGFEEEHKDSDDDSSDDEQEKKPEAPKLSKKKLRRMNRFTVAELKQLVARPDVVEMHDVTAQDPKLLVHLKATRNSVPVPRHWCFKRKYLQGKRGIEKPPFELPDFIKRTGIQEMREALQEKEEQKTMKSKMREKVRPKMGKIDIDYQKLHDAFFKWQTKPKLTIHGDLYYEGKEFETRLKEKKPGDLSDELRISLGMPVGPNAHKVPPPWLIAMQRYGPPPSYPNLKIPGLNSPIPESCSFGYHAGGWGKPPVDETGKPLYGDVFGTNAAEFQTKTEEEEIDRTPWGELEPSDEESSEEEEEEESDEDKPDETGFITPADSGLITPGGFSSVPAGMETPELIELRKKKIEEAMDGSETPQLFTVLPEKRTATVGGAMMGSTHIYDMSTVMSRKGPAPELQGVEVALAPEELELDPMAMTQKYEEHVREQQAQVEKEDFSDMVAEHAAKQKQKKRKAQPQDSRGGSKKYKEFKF
The experiment in a line: Kd (EC50 corrected by depletion factor). An outline of the steps:
as §1

Another series deals with RPS12 (UniProt P25398). The experiment in a line: Kd (EC50 corrected by depletion factor). The method in brief:
as §1

Turning to AAUAAA, the EC50 with MKRN2 amounted to 3550 nM. Besides, the Kd in the series with FUBP1 was determined as 673 nM; in the series with SF3B2, 719 nM.

The sequence CUGUCCU gave a Kd in the series with RPS12 of 128 nM. In other words, the sub-micromolar range.
